Laboratory results reported in US20240084042A1 (Genentech, published 2024).

T1: human KLK5 (human, UniProt Q9Y337 67-293)
T1 construct: also called huKLK5; KLK5 AMC
T1 sequence: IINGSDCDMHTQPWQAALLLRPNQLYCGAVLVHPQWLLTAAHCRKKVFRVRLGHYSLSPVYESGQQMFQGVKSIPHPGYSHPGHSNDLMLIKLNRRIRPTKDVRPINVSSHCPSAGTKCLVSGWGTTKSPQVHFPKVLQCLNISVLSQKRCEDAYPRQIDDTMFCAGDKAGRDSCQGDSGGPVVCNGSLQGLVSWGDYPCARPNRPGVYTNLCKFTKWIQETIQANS

T2: cynomolgus monkey KLK5 (cynomolgus monkey, UniProt Q9Y337 67-293 (human entry))
T2 construct: also called cyno KLK5
T2 chain: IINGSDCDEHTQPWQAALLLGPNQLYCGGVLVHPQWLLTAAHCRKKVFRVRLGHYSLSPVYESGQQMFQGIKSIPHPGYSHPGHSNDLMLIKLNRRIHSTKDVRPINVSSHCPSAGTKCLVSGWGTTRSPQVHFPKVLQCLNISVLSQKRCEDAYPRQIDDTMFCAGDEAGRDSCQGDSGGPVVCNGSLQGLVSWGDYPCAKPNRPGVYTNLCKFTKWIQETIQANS


Assays:
human KLK7 = molecular target: T3, human KLK7 (human, UniProt P49862 30-253); test: SPR BIAcore 8K, antibody on protein A chip, 37 C
T3 construct: Antigen injected in SPR; also called hu KLK7; huKLK7
Method: The binding affinity of the humanized antibodies was determined by BIAcore™ 8K SPR system. For kinetics measurements, antibodies were captured on research grade protein A chip (GE Healthcare) to achieve approximately 300 RU. Ten-fold serial dilutions of human KLK7 were injected in HBS-P buffer at 37° C. with a flow rate of 100 μL/min. Association rates (ka) and dissociation rates (kd) were calculated using a 1:1 Langmuir binding model (BIAcore Insight Evaluation Software version 2.0). The equilibrium dissociation constant (KD) was calculated as the ratio kd/ka.

human KLK5 = molecular target: T1, human KLK5; test: SPR, one-armed monovalent antibody
cynomolgus monkey KLK5 = molecular target: T2, cynomolgus monkey KLK5; test: SPR, one-armed monovalent antibody

T3 sequence (P49862 30-253): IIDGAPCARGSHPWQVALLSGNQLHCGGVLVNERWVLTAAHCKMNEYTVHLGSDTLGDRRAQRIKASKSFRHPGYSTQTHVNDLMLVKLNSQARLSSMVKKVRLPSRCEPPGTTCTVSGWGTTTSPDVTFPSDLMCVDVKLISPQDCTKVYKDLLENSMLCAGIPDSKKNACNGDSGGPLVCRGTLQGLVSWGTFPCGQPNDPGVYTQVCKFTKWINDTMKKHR

Binder | Kd (human KLK7) | koff (human KLK7) | kon (human KLK7) | Kd (human KLK5) | koff (human KLK5) | kon (human KLK5) | Kd (cynomolgus monkey KLK5) | koff (cynomolgus monkey KLK5) | kon (cynomolgus monkey KLK5)
OA.hu.10C5.N53V.S34K.F92Y (antibody, V domains shown, One-armed (OA) monovalent anti-KLK5 antibody with a human IgG1 Fc, with Q38E/Q39K; constant regions and dummy Fc chain not specified) VH: EVQLVESGGGLVQPGGSLRLSCAASGFSLSSYGVTWVRKAPGKGLEWIGYITSVYGVSYYASWAKSRSTISRDTSKNTVYLQMGSLRAEDMAVYYCARENPDYGYAYDAWGQGTTVTVSS VL: AIRMTQSPSSFSASTGDRVTITCQASESISNELKWYQEKPGKAPKLLIYYASTLASGVPSRFSGSGSGTDFTLTISSLQPEDFATYYCAQGYGSSGVENVFGGGTKVEIK | – | – | – | < 0.334 pM | < 1e-06 s⁻¹ | 3e+06 M⁻¹ s⁻¹ | 5.22 pM | 3.08e-05 s⁻¹ | 5.9e+06 M⁻¹ s⁻¹
OA.hu.10C5.N53V.S34K.S95F (antibody, V domains shown, One-armed (OA) monovalent anti-KLK5 antibody with a human IgG1 Fc, with Q38E/Q39K; constant regions and dummy Fc chain not specified) VH: EVQLVESGGGLVQPGGSLRLSCAASGFSLSSYGVTWVRKAPGKGLEWIGYITSVYGVSYYASWAKSRSTISRDTSKNTVYLQMGSLRAEDMAVYYCARENPDYGYAYDAWGQGTTVTVSS VL: AIRMTQSPSSFSASTGDRVTITCQASESISNELKWYQEKPGKAPKLLIYYASTLASGVPSRFSGSGSGTDFTLTISSLQPEDFATYYCAQGFGSFGVENVFGGGTKVEIK | – | – | – | < 0.235 pM | < 1e-06 s⁻¹ | 4.25e+06 M⁻¹ s⁻¹ | 3.03 pM | 2.86e-05 s⁻¹ | 9.41e+06 M⁻¹ s⁻¹
OA.hu.10C5.N53V.S95F (antibody, V domains shown, One-armed (OA) monovalent anti-KLK5 antibody with a human IgG1 Fc, with Q38E/Q39K; constant regions and dummy Fc chain not specified) VH: EVQLVESGGGLVQPGGSLRLSCAASGFSLSSYGVTWVRKAPGKGLEWIGYITSVYGVSYYASWAKSRSTISRDTSKNTVYLQMGSLRAEDMAVYYCARENPDYGYAYDAWGQGTTVTVSS VL: AIRMTQSPSSFSASTGDRVTITCQASESISNELSWYQEKPGKAPKLLIYYASTLASGVPSRFSGSGSGTDFTLTISSLQPEDFATYYCAQGFGSFGVENVFGGGTKVEIK | – | – | – | 2.59 pM | 1.51e-05 s⁻¹ | 5.82e+06 M⁻¹ s⁻¹ | 7.44 pM | 0.0001 s⁻¹ | 1.35e+07 M⁻¹ s⁻¹
OA.hu.10C5.N53V.S34K.F92Y.S95F (antibody, V domains shown, One-armed (OA) monovalent anti-KLK5 antibody with a human IgG1 Fc, with Q38E/Q39K; constant regions and dummy Fc chain not specified) VH: EVQLVESGGGLVQPGGSLRLSCAASGFSLSSYGVTWVRKAPGKGLEWIGYITSVYGVSYYASWAKSRSTISRDTSKNTVYLQMGSLRAEDMAVYYCARENPDYGYAYDAWGQGTTVTVSS VL: AIRMTQSPSSFSASTGDRVTITCQASESISNELKWYQEKPGKAPKLLIYYASTLASGVPSRFSGSGSGTDFTLTISSLQPEDFATYYCAQGYGSFGVENVFGGGTKVEIK | – | – | – | 0.367 pM | 1.88e-06 s⁻¹ | 5.13e+06 M⁻¹ s⁻¹ | 2.65 pM | 2.81e-05 s⁻¹ | 1.06e+07 M⁻¹ s⁻¹

Continued, values first:

Kd (human KLK7) | koff (human KLK7) | kon (human KLK7) | Kd (human KLK5) | koff (human KLK5) | kon (human KLK5) | Kd (cynomolgus monkey KLK5) | koff (cynomolgus monkey KLK5) | kon (cynomolgus monkey KLK5) | Binder
< 1 pM | < 1e-06 s⁻¹ | 2.16e+07 M⁻¹ s⁻¹ | – | – | – | – | – | – | chimeric rb.14H11c-hIgG1 (antibody, V domains shown, Rabbit variable domains (14H11 with C35a to S in VH) on human IgG1; also called Chimeric 14H11c) VH: QSLEESGGDLVKPGASLTLTCTASGFSFSSSYYMSWVRQAPGKGLEWIASIYAGSSGAPYYAGWAKGRFTISKTSSTAVTLQMSSLTAADTATYFCAREGFAETGGYGYAAYFNLWGPGTLVTVSS VL: AIEMTQSPPSLSASVGETVRIRCLASEDIASSVSWYQQKPGKPPTLLIYGASNLESGVPPRFTGSGSGTDYTLTIGGVQAEDAATYYCLGGYSYSSTGTAFGAGTKVEIK
0.894 pM | 2.52e-05 s⁻¹ | 2.82e+07 M⁻¹ s⁻¹ | – | – | – | – | – | – | One-armed hu.14H11c.L2H11-hIgG1 knob-in-hole (antibody, Monovalent one-armed format) heavy: not shown VL: DIQMTQSPSSLSASVGDRVTITCLASEDIASSVSWYQKKPGKAPKLLIYGASNLESGVPSRFSGSGSGTDYTLTISSLQPEDFATYYCLGGYSYSSTGTAFGGGTKVEIK DKTHTCPPCPAPELLGGPSVFLFPPKPKDTLMISRTPEVTCVVVDVSHEDPEVKFNWYVDGVEVHNAKTKPREEQYGSTYRVVSVLTVLHQDWLNGKEYKCKVSNKALPAPIEKTISKAKGQPREPQVYTLPPSREEMTKNQVSLSCAVKGFYPSDIAVEWESNGQPENNYKTTPPVLDSDGSFFLVSKLTVDKSRWQQGNVFSCSVMHEALHNHYTQKSLSLSPGK
